Data reported in the Immune Epitope Database (IEDB).

Columns and labels:
Test in all cases: IEDB peptide-MHC binding, purified MHC/competitive/radioactivity; filed as Kd, often an IC50 or EC50 that approximates it; ≥ and ≤ were set here for values at or beyond the usual limits of such assays
[1] = biological target: HLA-A*31:01
[2] = biological target: HLA-A*33:01
[3] = biological target: HLA-A*68:01
[4] = biological target: HLA-A*11:01
[5] = biological target: HLA-A*03:01
[6] = source organism: Vaccinia virus WR
[7] = source organism: Dengue virus 3 Martinique/1243/1999
[8] = source organism: SARS coronavirus Tor2
[9] = source organism: Dengue virus 2 Jamaica/1409/1983
[10] = source organism: Lymphocytic choriomeningitis virus (strain Armstrong)
[11] = source organism: Dengue virus 2 Peru/IQT2913/1996
[12] = source organism: Dengue virus 4 Philippines/H241/1956
[13] = source organism: Mammarenavirus guanaritoense
[14] = source organism: Vaccinia virus Copenhagen
[15] = source organism: Dengue virus 4 Thailand/0348/1991
[16] = source organism: Mammarenavirus lassaense

Sequence	Kd [1, 6]	Kd [2, 6]	Kd [3, 6]	Kd [4, 6]	Kd [5, 6]	other results
VSVSDFRDY	≥ 77.9 µM	11.9 µM	≥ 77.7 µM	10.4 µM	≥ 78 µM	–
VLARWGTFKK	–	–	–	–	–	Kd [5, 7]: 0.0183 µM
TVASAAQRR	–	–	–	–	–	Kd ([3]; source organism: Dengue virus 1 Brazil/97-11/1997): 0.0338 µM
SFIEDLLFNK	–	–	–	–	–	Kd [1, 8]: 0.0535 µM; Kd [2, 8]: 0.387 µM; Kd [3, 8]: 0.725 µM; Kd [4, 8]: 0.352 µM; Kd [5, 8]: 7.95 µM
IILAALFMYY	≥ 70 µM	≥ 70 µM	1.48 µM	0.74 µM	0.679 µM	–
KASMLEKYK	0.181 µM	≥ 39.2 µM	2.85 µM	0.11 µM	4.04 µM	–
TMRCIGISNR	–	–	–	–	–	Kd [1, 9]: 0.00366 µM; Kd [2, 9]: 0.0141 µM
RINGIPQQH	–	–	–	–	–	Kd ([5]; source organism: Homo sapiens): 0.11 µM
SSLRREHIK	0.0897 µM	≥ 37.1 µM	14 µM	0.27 µM	1.07 µM	–
NAISSRVDR	1.28 µM	0.096 µM	0.0149 µM	≥ 37.1 µM	≥ 78 µM	–
SCQGSDDIRK	–	–	–	–	–	Kd [1, 10]: 9.93 µM; Kd [2, 10]: ≥ 70 µM; Kd [3, 10]: ≥ 70.1 µM; Kd [4, 10]: 18.3 µM; Kd [5, 10]: ≥ 70 µM
FLKDDTLSK	≥ 77.9 µM	≥ 30.7 µM	0.638 µM	≥ 10 µM	0.347 µM	–
VCLALTNSMK	–	–	–	–	–	Kd [1, 10]: 4.56 µM; Kd [2, 10]: ≥ 66.8 µM; Kd [3, 10]: 19.3 µM; Kd [4, 10]: 0.634 µM; Kd [5, 10]: 0.0424 µM
RLPTFMTQK	–	–	–	–	–	Kd [5, 9]: 0.00236 µM
TTFITPMLR	–	–	–	–	–	Kd [1, 11]: 0.0271 µM; Kd [2, 11]: 0.0117 µM; Kd [3, 11]: 0.00676 µM; Kd [4, 11]: 0.0844 µM; Kd [5, 11]: 0.0132 µM
DTTPFGQQR	–	–	–	–	–	Kd [2, 12]: 0.0945 µM; Kd [3, 12]: 0.091 µM
CCNWLDRCR	–	–	–	–	–	Kd [1, 13]: 13.5 µM; Kd [2, 13]: ≥ 56.8 µM; Kd [3, 13]: ≥ 77.6 µM; Kd [4, 13]: 18.1 µM; Kd [5, 13]: ≥ 78 µM
ETFKIDAVRY	≥ 41.3 µM	≥ 70 µM	0.0469 µM	≥ 25.1 µM	≥ 70.1 µM	–
KAIEKDRLDK	≥ 21.8 µM	≥ 70 µM	4.73 µM	1.2 µM	12.6 µM	–
VALYRRIQR	0.00227 µM	0.0128 µM	0.256 µM	5.24 µM	16.1 µM	–

Sequence	Kd [1, 6]	Kd [2, 6]	Kd [3, 6]	Kd [4, 6]	Kd [5, 6]	other results
VLTSEEVVLK	–	–	–	–	–	Kd [1, 8]: ≥ 70 µM; Kd [2, 8]: ≥ 70 µM; Kd [3, 8]: 2.1 µM; Kd [4, 8]: 0.966 µM; Kd [5, 8]: 7.47 µM
PLIDIIRKR	6.25 µM	1.02 µM	0.974 µM	≥ 48.1 µM	≥ 45.7 µM	–
YVCKHTYVDR	–	–	–	–	–	Kd [1, 7]: 0.133 µM; Kd [3, 7]: 0.89 µM
IVTCAMFTCK	–	–	–	–	–	Kd [4, 9]: 0.352 µM; Kd [5, 9]: 0.362 µM
VTRKCPQKK	0.0137 µM	12.3 µM	9.88 µM	0.0615 µM	0.000762 µM	–
VISKIYTLIY	0.99 µM	2.24 µM	1.79 µM	0.113 µM	0.101 µM	–
RVIWMDAYK	–	–	–	–	–	Kd [1, 14]: 0.00105 µM; Kd [2, 14]: 4.82 µM; Kd [3, 14]: 0.000827 µM; Kd [4, 14]: 0.000793 µM; Kd [5, 14]: 0.00403 µM
MMKLGISPSK	0.382 µM	10.6 µM	0.0811 µM	0.0271 µM	0.0115 µM	–
TVMAFHLSTR	–	–	–	–	–	Kd [1, 15]: 0.00592 µM; Kd [2, 15]: 0.0213 µM; Kd [3, 15]: 0.00443 µM; Kd [4, 15]: 0.0694 µM
ELRRAAIDR	18.1 µM	1.09 µM	0.0832 µM	≥ 77.9 µM	≥ 78 µM	–
MIKMFSQIDR	0.00243 µM	0.0453 µM	0.0016 µM	3.79 µM	2.25 µM	–
ELTLDCEPR	–	–	–	–	–	Kd [2, 12]: 0.032 µM; Kd [3, 12]: 0.229 µM
KSRRLNLFSK	0.647 µM	≥ 70 µM	≥ 70.2 µM	1.09 µM	0.64 µM	–
SHLGPQFCK	–	–	–	–	–	Kd [1, 16]: ≥ 24.2 µM; Kd [2, 16]: ≥ 28.3 µM; Kd [3, 16]: 6.22 µM; Kd [4, 16]: 0.347 µM; Kd [5, 16]: 0.699 µM
KSKQDRSDGY	≥ 70 µM	≥ 70 µM	≥ 70.2 µM	≥ 69.8 µM	≥ 35.3 µM	–
RALKAYFTAK	0.0388 µM	16 µM	1.95 µM	0.0265 µM	0.0124 µM	–
RFQPFQQFGR	–	–	–	–	–	Kd [1, 8]: 0.00106 µM; Kd [2, 8]: 1.3 µM; Kd [3, 8]: 0.54 µM; Kd [4, 8]: ≥ 35.1 µM; Kd [5, 8]: 13.5 µM
VTLFYCDER	0.131 µM	0.284 µM	0.121 µM	0.273 µM	≥ 43.2 µM	–
ETSPGEIKPK	≥ 70 µM	≥ 61.9 µM	0.0475 µM	1.52 µM	≥ 35 µM	–
